The target of the test is IL-4R (UniProt P24394). The test can be described thus: cell-based or functional assay.

B1: anti-IL-4R:anti-CD63 conjugate (streptavidin-conjugated anti-IL-4R antibody combined 1:1 with biotinylated anti-CD63 antibody MEM-259) (protein, part only; not given: anti-CD63 antibody MEM-259, part only)
VH: EVQLVESGGGVVQPGRSLRLSCVASGFTFSDYGMHWVRQAPGKGLEWVAVIWYDGSIKYFRDSVKGRFTISRDNSKNTLYLQMNSLRVEDTAHYYCAKESSSWYFYHGLDVWGQGTMVTVSS
VL: EIVMTQSPLSLPVSPGEPASISCRSNQSLLHSNGNNYLAWYLQKPGQSPHLLIYLGSNRASGVPDRFSGSGSGTDFTLKISRVEAGDVGTYFCMQSLQAPPFTFGPGTKVEIKR
modifications: antibody conjugated to streptavidin
In turn, B1 yielded an attenuation of IL-4R activity beyond the control constructs greater than 10%.

Source of the values: patent publication US20220008548A1.
